In patent US20090253131A1, “HYBRID FUSION REPORTER AND USES THEREOF” (Promega Corporation, priority 2007, published 2009):
Like-named read-outs stand apart in the source and are kept apart here. Each block holds one substance with its values, some of them ahead of it.

Experiments:
Assay in all cases: cell-based or functional assay
[1] = molecular target: hRL (92-311)-FKBP (Renilla) (UniProt P27652)
[2] = molecular target: hRL (92-311)-FKBP (Renilla) (UniProt P27652); remark: listed apart in the source
[3] = molecular target: hRL (112-311)-FKBP (Renilla) (UniProt P27652)
hRL (112-311)-FKBP (Renilla), sequence (P27652 other isoform, or with tags, fused parts or gaps): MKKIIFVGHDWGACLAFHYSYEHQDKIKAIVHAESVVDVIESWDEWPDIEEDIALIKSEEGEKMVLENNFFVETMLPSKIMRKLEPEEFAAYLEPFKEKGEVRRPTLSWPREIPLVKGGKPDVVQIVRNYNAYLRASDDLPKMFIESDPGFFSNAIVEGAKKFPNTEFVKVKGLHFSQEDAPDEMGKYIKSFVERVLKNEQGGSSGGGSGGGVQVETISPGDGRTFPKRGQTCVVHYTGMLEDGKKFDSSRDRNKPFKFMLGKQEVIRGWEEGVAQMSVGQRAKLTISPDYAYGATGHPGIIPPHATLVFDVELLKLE

[4] = molecular target: hRL (112-311)-FKBP (Renilla) (UniProt P27652); remark: listed apart in the source
[5] = molecular target: FKBP-hRL (112-311) (Renilla) (UniProt P62942)
FKBP-hRL (112-311) (Renilla), sequence (P62942 other isoform, or with tags, fused parts or gaps): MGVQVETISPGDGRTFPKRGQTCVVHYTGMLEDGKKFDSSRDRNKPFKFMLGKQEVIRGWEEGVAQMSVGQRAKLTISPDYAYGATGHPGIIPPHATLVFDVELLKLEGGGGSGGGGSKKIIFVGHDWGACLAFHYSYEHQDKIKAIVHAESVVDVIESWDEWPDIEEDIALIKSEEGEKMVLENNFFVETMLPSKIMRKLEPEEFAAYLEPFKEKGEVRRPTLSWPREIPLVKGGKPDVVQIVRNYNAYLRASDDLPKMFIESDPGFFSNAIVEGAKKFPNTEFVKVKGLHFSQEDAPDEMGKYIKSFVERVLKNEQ

[6] = molecular target: Rluc8 (92-311)-FKBP (Renilla) (UniProt P27652)
Rluc8 (92-311)-FKBP (Renilla), sequence (P27652 other isoform, or with tags, fused parts or gaps): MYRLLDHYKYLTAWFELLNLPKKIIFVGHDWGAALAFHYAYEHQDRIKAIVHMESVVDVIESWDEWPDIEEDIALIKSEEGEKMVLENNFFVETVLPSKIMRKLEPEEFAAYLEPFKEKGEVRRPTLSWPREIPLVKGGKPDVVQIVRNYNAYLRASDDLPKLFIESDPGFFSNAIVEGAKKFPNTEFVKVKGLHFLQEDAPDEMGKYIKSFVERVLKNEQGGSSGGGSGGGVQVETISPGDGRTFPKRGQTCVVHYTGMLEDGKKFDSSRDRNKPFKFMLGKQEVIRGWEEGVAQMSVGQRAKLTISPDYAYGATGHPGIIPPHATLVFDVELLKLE

[7] = molecular target: Rluc8 (112-311)-FKBP (Renilla) (UniProt P27652)
Rluc8 (112-311)-FKBP (Renilla), sequence (P27652 other isoform, or with tags, fused parts or gaps): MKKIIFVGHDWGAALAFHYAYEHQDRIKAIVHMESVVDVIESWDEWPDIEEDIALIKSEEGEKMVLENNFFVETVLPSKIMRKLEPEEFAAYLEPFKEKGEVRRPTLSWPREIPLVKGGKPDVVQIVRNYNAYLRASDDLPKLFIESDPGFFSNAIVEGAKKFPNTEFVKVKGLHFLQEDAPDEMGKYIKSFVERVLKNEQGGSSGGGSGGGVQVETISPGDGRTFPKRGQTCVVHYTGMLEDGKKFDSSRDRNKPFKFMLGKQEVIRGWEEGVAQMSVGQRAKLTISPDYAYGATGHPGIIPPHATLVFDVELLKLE

[8] = molecular target: FKBP-hRL (92-311) (Renilla) (UniProt P62942)
FKBP-hRL (92-311) (Renilla), sequence (P62942 other isoform, or with tags, fused parts or gaps): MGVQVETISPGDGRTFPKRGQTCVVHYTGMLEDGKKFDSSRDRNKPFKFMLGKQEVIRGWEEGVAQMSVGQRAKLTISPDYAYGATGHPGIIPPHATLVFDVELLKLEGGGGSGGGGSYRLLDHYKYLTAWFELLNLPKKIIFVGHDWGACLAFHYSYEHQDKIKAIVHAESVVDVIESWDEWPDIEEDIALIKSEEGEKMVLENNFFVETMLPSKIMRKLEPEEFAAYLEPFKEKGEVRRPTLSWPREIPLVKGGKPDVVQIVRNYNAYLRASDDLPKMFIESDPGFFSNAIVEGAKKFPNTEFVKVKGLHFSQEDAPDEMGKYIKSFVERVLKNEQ

[9] = molecular target: FKBP-hRL (92-311) (Renilla) (UniProt P62942); remark: listed apart in the source
[10] = molecular target: FKBP-hRL (112-311) (Renilla) (UniProt P62942); remark: listed apart in the source

hRL (1-91)-FRB, sequence (P27652 other isoform, or with tags, fused parts or gaps): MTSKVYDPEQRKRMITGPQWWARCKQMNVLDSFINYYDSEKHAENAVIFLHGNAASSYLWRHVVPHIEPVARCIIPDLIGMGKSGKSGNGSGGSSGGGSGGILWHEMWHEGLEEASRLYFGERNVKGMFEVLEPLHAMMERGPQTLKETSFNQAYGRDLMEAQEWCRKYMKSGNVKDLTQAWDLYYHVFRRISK
hRL (92-311)-FKBP (Renilla), sequence (P27652 other isoform, or with tags, fused parts or gaps): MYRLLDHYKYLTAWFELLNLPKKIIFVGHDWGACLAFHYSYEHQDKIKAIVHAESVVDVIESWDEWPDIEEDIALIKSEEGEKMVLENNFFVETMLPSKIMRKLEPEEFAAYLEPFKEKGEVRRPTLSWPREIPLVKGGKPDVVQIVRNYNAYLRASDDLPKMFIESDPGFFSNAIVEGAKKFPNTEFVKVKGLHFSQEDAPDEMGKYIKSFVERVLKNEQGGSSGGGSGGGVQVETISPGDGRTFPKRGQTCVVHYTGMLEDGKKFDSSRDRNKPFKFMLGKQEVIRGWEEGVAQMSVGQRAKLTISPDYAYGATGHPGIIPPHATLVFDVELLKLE
hRL (1-111)-FRB, sequence (P27652 other isoform, or with tags, fused parts or gaps): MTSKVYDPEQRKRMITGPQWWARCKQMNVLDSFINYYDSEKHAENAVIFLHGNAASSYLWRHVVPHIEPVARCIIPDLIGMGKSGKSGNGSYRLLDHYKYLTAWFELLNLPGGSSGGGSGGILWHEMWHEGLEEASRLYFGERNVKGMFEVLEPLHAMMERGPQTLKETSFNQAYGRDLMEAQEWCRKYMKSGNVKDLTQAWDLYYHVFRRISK
Rluc8 (1-91)-FRB, sequence (P27652 other isoform, or with tags, fused parts or gaps): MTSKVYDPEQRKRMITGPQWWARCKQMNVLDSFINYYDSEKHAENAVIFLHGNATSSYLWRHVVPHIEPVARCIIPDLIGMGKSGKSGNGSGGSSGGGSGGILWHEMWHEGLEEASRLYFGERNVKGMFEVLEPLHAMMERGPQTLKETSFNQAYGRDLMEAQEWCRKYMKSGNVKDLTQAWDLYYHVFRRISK
Rluc8 (1-111)-FRB, sequence (P27652 other isoform, or with tags, fused parts or gaps): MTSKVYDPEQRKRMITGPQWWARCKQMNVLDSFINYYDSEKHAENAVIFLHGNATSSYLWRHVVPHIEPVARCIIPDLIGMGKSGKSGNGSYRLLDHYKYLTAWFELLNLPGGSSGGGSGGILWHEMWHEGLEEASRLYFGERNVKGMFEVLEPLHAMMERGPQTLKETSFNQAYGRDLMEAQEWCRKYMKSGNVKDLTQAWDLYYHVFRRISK

Renilla luciferase activity, +rapamycin against no rapamycin [1]: 10.4 fold
Renilla luciferase activity, +rapamycin against no rapamycin [2]: 134 fold
Substance: FRB-hRL (1-91) (from UniProt P42345 2021-2113; P27652 1-91)

Renilla luciferase activity, +rapamycin against no rapamycin [3]: 51 fold
Renilla luciferase activity, +rapamycin against no rapamycin [4]: 46 fold
Renilla luciferase activity, +rapamycin against no rapamycin [5]: 5.3 fold
Substance: FRB-hRL (1-111) (from UniProt P42345 2021-2113; P27652 1-111)

Renilla luciferase activity, +rapamycin against no rapamycin [6]: 4 fold
Substance: Rluc8 (1-91)-FRB (from UniProt P27652 1-91; P42345 2021-2113)

Renilla luciferase activity, +rapamycin against no rapamycin [7]: 17 fold
Substance: Rluc8 (1-111)-FRB (from UniProt P27652 1-111; P42345 2021-2113)

Renilla luciferase activity, +rapamycin against no rapamycin [8]: 13.5 fold
Renilla luciferase activity, +rapamycin against no rapamycin [9]: 8.6 fold
Substance: hRL (1-91)-FRB (from UniProt P27652 1-91; P42345 2021-2113)

Renilla luciferase activity, +rapamycin against no rapamycin [10]: 114 fold
Renilla luciferase activity, +rapamycin against no rapamycin [5]: 81 fold
Substance: hRL (1-111)-FRB (from UniProt P27652 1-111; P42345 2021-2113)
